Assay results: patent US20260226161A1 (EXELIXIS, published 2026)

How the values were obtained:
[1] = target: T1, biotinylated cyno NKG2A/CD94 heterodimer (extracellular domains) (cynomolgus, UniProt Q9MZJ3 94-233; Q9MZK9 32-179, biotinylated); test: BLI (Octet), bivalent
T1 construct: also called Cynomolgus NKG2A protein; not shown: fusion partner/tags ('similar approach' to the human proteins); fusion partner ('similar approach')
Description: (§1) A total of 58 binders formatted as IgG antibodies from phage display as described in Example 1 were further tested for binding.
(§2) The antibodies were evaluated for binding to (1) human NKG2A, (2) human NKG2C, and (3) cyno NKG2A. Bivalent interaction of binders to biotinylated human NKG2A (see Example 1), biotinylated human NKG2C/CD94 heterodimer, or biotinylated cyno NKG2A/CD94 heterodimer immobilized on a streptavidin biosensor was monitored using Octet (Pall ForteBio) instrument. For these assays, human NKG2C/CD94 and cyno NKG2A/CD94 were prepared using the procedure as described in Example 1. Similarly, the extracellular domain of human NKG2C was expressed and purified from HEK293 cells as heterodimer with CD94 as Fc fusions. The extracellular domain of NKG2C used for selection campaigns encompassed amino acid sequence Ile94-Leu231 (Accession No. P26717-1; SEQ ID NO: 75). The gene encoding CD94 (Accession No. Q13241-1, SEQ ID NO:76), Lys33-Ile159 was synthesized from IDT and cloned into mammalian expression vector as an N-terminal Fc (hole) fusion. Plasmids encoding NKG2C-Fc fusion and CD94-Fc fusion were co-transfected into HEK293T cells using standard procedures. NKG2C/CD94 heterodimer was purified from cell supernatant using Protein A resins. Similar approach was used to obtain Cynomolgus NKG2A protein. Specifically, extracellular domain of Cynomolgus NKG2A contained amino acid Pro 94-Leu 233. […] Extracellular domain of Cynomolgus CD94 contained amino acid residues Lys 33-Ile 179 (Accession No. Q68VD4-1; SEQ ID NO: 78).

[2] = target: T2, biotinylated human NKG2C/CD94 heterodimer (extracellular domains, Fc fusions) (human, UniProt P26717 94-231; Q13241 32-179, biotinylated); test: BLI (Octet), bivalent
T2 construct: not shown: N-terminal Fc (hole)
T2 sequence (P26717 other isoform, or with tags, fused parts or gaps, chain 1 of 2): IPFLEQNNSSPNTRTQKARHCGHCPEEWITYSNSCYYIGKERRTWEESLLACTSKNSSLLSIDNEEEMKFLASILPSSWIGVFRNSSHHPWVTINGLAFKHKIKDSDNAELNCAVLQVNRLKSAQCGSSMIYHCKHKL
T2 sequence (Q13241 32-179, chain 2 of 2): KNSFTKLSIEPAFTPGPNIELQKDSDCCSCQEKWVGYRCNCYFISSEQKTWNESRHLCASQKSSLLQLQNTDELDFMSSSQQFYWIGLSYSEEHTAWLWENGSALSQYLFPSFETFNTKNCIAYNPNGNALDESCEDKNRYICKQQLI
Description: as §1, §2

[3] = target: T3, NKG2A expressed on KHYG-1 cells (endogenous) (human, UniProt P26715 1-233; Q13241 1-179); test: flow cytometry on KHYG-1 cells expressing endogenous NKG2A
T3 construct: whole, on cells; Surface NKG2A copy number of approximately 10-20K; also called KHYG-1 cells expressing endogenous NKG2A; NKG2A-expressing cells
T3 sequence (P26715 whole entry, chain 1 of 2): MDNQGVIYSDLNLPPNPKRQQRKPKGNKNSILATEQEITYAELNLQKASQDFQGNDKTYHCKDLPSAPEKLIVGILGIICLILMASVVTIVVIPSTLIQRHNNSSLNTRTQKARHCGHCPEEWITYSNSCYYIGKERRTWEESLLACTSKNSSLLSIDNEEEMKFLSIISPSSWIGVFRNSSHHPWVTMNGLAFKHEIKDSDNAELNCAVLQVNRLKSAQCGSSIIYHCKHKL
T3 sequence (Q13241 whole entry, chain 2 of 2): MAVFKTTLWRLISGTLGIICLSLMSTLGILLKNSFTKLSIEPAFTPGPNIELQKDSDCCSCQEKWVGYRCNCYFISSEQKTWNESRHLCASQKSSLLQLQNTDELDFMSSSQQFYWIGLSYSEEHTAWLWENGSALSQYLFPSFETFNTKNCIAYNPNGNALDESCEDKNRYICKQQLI
Description: Antibodies that were selected for binding to NKG2A, for example, such as those described in Examples 1 and 2, were evaluated for binding to cells that express NKG2A.
Cells were harvested at 70-90% confluence on the day of the assay. Cells were collected by centrifugation at 200×g for 5 minutes and media was removed. Cells were resuspended at 2×10⁶ cells per mL in cold PBS. […] 50 μL per well of the antibody dilution was plated in a 96 well V-bottom plate (Costar 3897). 50 μL per well of cell suspension was added. Plates were placed at 4° C. for 45-60 minutes.

T1 sequence (Q9MZJ3 other isoform, or with tags, fused parts or gaps, chain 1 of 2): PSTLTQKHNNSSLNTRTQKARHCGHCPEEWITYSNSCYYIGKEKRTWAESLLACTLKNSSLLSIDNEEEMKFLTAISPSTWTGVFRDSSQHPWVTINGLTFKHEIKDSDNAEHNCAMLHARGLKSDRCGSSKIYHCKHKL
T1 sequence (Q9MZK9 32-179, chain 2 of 2): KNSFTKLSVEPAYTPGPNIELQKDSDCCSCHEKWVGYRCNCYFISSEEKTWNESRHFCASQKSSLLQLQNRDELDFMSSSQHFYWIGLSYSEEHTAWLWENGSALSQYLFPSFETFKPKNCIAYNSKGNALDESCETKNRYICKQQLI

B1: Antibody Clone A11 (antibody, human IgG1, kappa, V domains shown)
VH: EVQLVESGGGLVQPGGSLRLSCAASGFTFSWYYIHWVRQAPGKGLEWVAVIDPISSYTYYADSVKGRFTISADTSKNTAYLQMNSLRAEDTAVYYCARGFDRAMDYWGQGTLVTVSS
VL: DIQMTQSPSSLSASVGDRVTITCRASKSVSSALAWYQQKPGKAPKLLIYVGSSRYSGVPSRFSGSRSGTDFTLTISSLQPEDFATYYCQQYYSSPYTFGQGTKVEIKR
binding result [1]: no binding
binding result [2]: no binding
EC50 [3]: 4.35 nM
